Reference: patent US20210261605A1
Positions count from the first letter of the chain named. One block for each binder: values may come before it.

Molecular target: IgG1 (product of Sigma-Aldrich)
Assay: SPR (Biacore T100), Fc-binding protein immobilized on CM5 chip, IgG1 in flow

B2: FcR35c-containing Fc-binding protein (SEQ ID NO: 5) (receptor)
chain: KIEEAMGMRTGDMPKAEVILEPPWNRVLEQDSVTLKCRGAHSPDDDSTQWFHNESLIPSQASSFIIDSASVEDSGEYRCQTSLSTLSEPVLLEVHIGWLLLQAPRWEFVEGEPIHLRCHSWRNTALHKVMFLQNGKVRKYFHHNSDFVIPKATLEDSGSYSCRGLVGRKNVSSEAVEITVTPGGHHHHHH
Kd: 40 nM
koff: 0.022 s⁻¹
kon: 540000 M⁻¹ s⁻¹

B5: FcR9_I (SEQ ID NO: 24), Fc-binding protein containing the amino acid substitution Val192Ile (receptor)
chain: KIEEAMGMRTEDLPKAEVILEPQWNRVLEKDSVTLKCRGAYSPEDNSTQWFHNESLISSQASSYLIDAATVDDSGEYRCQTSLSTLSDPVQLEVHIGWLLLQAPRWEFKEGDPIHLRCHSWKNTALHKVTYLQNGKGRKYFHHNSDFYIPKATLKDSGSYSCRGLIGSKNVSSETVNITITQGGHHHHHH
Kd: 60 nM
koff: 0.012 s⁻¹
kon: 200000 M⁻¹ s⁻¹

B6: FcR9_A (SEQ ID NO: 26), Fc-binding protein containing the amino acid substitution Val192Ala (receptor)
chain: B5 chain with I166A
Kd: 36 nM
koff: 0.0035 s⁻¹
kon: 100000 M⁻¹ s⁻¹

B7: Fc-binding protein FcR9 (SEQ ID NO: 20) (receptor)
chain: B5 chain with I166V
Kd: 77 nM
koff: 0.031 s⁻¹
kon: 410000 M⁻¹ s⁻¹

More lines, in order of falling Kd, values ahead:

Kd: 3300 nM
koff: 0.3 s⁻¹
kon: 90000 M⁻¹ s⁻¹
B8: FcR9_F, Fc-binding protein having phenylalanine substituting for valine at position 192 of FcR9 (SEQ ID NO: 20) (receptor)
chain: B5 chain with I166F

Kd: 95 nM
koff: 0.13 s⁻¹
kon: 1.4e+06 M⁻¹ s⁻¹
B3: FcR36a-containing Fc-binding protein (SEQ ID NO: 11) (receptor)
chain: B2 chain with S55R, E72D, E88D, L91Q, V166A, N170K, E174G, E177D, P182Q

Kd: 43 nM
koff: 0.038 s⁻¹
kon: 900000 M⁻¹ s⁻¹
B4: FcR36i-containing Fc-binding protein (SEQ ID NO: 9) (receptor)
chain: B2 chain with S55R, E72D, E88D, L91Q, V166I, N170K, E174G, E177D, P182Q

Kd: 39 nM
koff: 0.031 s⁻¹
kon: 810000 M⁻¹ s⁻¹
B1: FcR35d-containing Fc-binding protein (SEQ ID NO: 7) (receptor)
chain: B2 chain with S55R, E72D, E88D, L91Q, N170K, E174G, E177D, P182Q
